Measurements from paper PMC3818340.
Residue numbers refer to the chain shown, from its start. Names and notes keep the numbering of the source.

B1: Pp MSAD (Pseudomonas pavonaceae) (protein)
chain: PLLKFDIFYGRTDAQIKSLLDAAHGAMVDAFGVPANDRYQTVSQHRPGEMVLEDTGLGYGRSSAVVLLTVISRPRSEEQKVCFYKLLTGALERDCGISPDDVIVALVENSDADWSFGRGRAEFLTGDLV
B2: FG41 MSAD (coryneform bacterium) (protein)
chain: PLIRIDLTSDRSREQRRAIADAVHDALVEVLAIPARDRFQILTAHDPSDIIAEDAGLGFQRSPSVVIIHVFTQAGRTIETKQRVFAAITESLAPIGVAGSDVFIAITENAPHDWSFGFGSAQYVTGELAIPATGAA
B3: FG41 MSAD (coryneform bacterium; Q73R) (protein)
chain: B2 chain with Q73R
B4: FG41 MSAD (coryneform bacterium; Y123F) (protein)
chain: B2 chain with Y123F

How the values were obtained:
[1] = substrate: CC#CC(=O)C(=O)O; experiment: purified protein; format: biochemical, Pseudomonas pavonaceae; conditions: 20 mM sodium phosphate buffer, pH 9.0, 24 °C
[2] = substrate: CC#CC(=O)C(=O)O; experiment: purified protein; format: biochemical, coryneform bacterium; conditions: 20 mM sodium phosphate buffer, pH 9.0, 24 °C

Protein	Km [1] [mM]	kcat [1] [s⁻¹]	kcat/Km [1] [M⁻¹ s⁻¹]	Km [2] [mM]	kcat [2] [s⁻¹]	kcat/Km [2] [M⁻¹ s⁻¹]
B1	3 ± 1.2	3.4 ± 0.8	1130	–	–	–
B2	–	–	–	7.3 ± 0.8	0.17 ± 0.01	20
B3	–	–	–	6.6 ± 1.5	1.2 ± 0.2	180
B4	–	–	–	21 ± 5	0.7 ± 0.1	30
